In patent US20250002557A1:

Molecular target: T1, PDGF-CC, Q9NRA1
T1 chain: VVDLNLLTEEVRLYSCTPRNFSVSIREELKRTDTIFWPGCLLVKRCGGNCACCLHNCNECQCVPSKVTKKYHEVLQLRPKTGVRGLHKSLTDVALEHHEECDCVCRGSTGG
Experiment: SPR, PDGF coupled to CM5 chip, VEGFR2-Fc in flow
Details: remark: other sources report otherwise

B1: VEGFR2-Fc (Met1-Glu764), P35968 20-764 (Fc fusion, not shown: a dimerising Fc or GST)
chain: ASVGLPSVSLDLPRLSIQKDILTIKANTTLQITCRGQRDLDWLWPNNQSGSEQRVEVTECSDGLFCKTLTIPKVIGNDTGAYKCFYRETDLASVIYVYVQDYRSPFIASVSDQHGVVYITENKNKTVVIPCLGSISNLNVSLCARYPEKRFVPDGNRISWDSKKGFTIPSYMISYAGMVFCEAKINDESYQSIMYIVVVVGYRIYDVVLSPSHGIELSVGEKLVLNCTARTELNVGIDFNWEYPSSKHQHKKLVNRDLKTQSGSEMKKFLSTLTIDGVTRSDQGLYTCAASSGLMTKKNSTFVRVHEKPFVAFGSGMESLVEATVGERVRIPAKYLGYPPPEIKWYKNGIPLESNHTIKAGHVLTIMEVSERDTGNYTVILTNPISKEKQSHVVSLVVYVPPQIGEKSLISPVDSYQYGTTQTLTCTVYAIPPPHHIHWYWQLEEECANEPSQAVSVTNPYPCEEWRSVEDFQGGNKIEVNKNQFALIEGKNKTVSTLVIQAANVSALYKCEAVNKVGRGERVISFHVTRGPEITLQPDMQPTEQESVSLWCTADRSTFENLTWYKLGPQPLPIHVGELPTPVCKNLDTLWKLNATMFSNSTNDILIMELKNASLQDQGDYVCLAQDRKTKKRHCVVRQLTVLERVAPTITGNLENQTTSIGESIEVSCTASGNPPPQIMWFKDNETLVEDSGIVLKDGNRNLTIRRVRKEDEGLYTCQACSVLGCAKVEAFFIIEGAQEKTNLE
Question: How did the Kd turn out when B1 was run?
Answer: 73.6 nM
